In patent US20210261685A1 (Alector, published 2021):

B1: MTK-16 (antibody, human IgG1, V domains shown)
VH: LIQLVQSGPELKKPGETVKISCKASGYTFTNHGMNWVKQDPGKGLKWMGWINTYTGEPTYADDFKGRFVFSMETSASAAFLQINNLKNEDTATYFCARKGVTAARYFDYWGQGTTLTVSS
VL: DIVMTQSPKFMSTSVGDRVSITCKASQNVRTAVAWYKKKPGQSPKALINLASNRHTGVPDRFTGSGSGTDFTLTISNVQSEDLADYFCLQHWNYPLTFGGGTKLEIK
B2: MTK-12 (antibody, human IgG1, V domains shown)
VH: QVQLQQSGPQLVRPGASVKISCKASGYSFTSHWMHWVKQRPGQGLEWIGMIDPSDGESRLNQKFKDKATLTVDKSSSTAYMQLSSPTFEDSAVYYCARGIYYYGITYAMDYWGQGTSVTVSS
VL: QIVLTQSPAIMSASPGEKVTMTCSASSSVSYMYWYQQKPRSSPRLLIYDTSNLASGVPVRFSGSGSGTSYSLTISRMEAEDAATYYCQQWSSYPLTFGAGTKLELK
B3: MTK-07 (antibody, human IgG1, V domains shown)
VH: DVQLQESGPGLVKPSQSLSLTCSVTGYSITSGYYWNWIRQFPGNTLEWMGYMSFDGDNKFNPSLKNRISITRDTSKNQFFLRLNSVTTEDTATYYCARGGYNYGSTEANWGQGTLVTVST
VL: QIVLTQSPAIMSAFPGEKVTITCSASSSVTYMHWFQQKPGTSPKLWIFSTSNLASGVPARFSGSGSGTSYSLTISRMEAEDAATYYCQQRSSYPFTFGSGTKLEIK

target: T1, human MerTK endogenously expressed on cells (SK-MEL-5 cells; human macrophages) (human, UniProt Q12866 21-999); assay: cell-based or functional assay
T1 sequence: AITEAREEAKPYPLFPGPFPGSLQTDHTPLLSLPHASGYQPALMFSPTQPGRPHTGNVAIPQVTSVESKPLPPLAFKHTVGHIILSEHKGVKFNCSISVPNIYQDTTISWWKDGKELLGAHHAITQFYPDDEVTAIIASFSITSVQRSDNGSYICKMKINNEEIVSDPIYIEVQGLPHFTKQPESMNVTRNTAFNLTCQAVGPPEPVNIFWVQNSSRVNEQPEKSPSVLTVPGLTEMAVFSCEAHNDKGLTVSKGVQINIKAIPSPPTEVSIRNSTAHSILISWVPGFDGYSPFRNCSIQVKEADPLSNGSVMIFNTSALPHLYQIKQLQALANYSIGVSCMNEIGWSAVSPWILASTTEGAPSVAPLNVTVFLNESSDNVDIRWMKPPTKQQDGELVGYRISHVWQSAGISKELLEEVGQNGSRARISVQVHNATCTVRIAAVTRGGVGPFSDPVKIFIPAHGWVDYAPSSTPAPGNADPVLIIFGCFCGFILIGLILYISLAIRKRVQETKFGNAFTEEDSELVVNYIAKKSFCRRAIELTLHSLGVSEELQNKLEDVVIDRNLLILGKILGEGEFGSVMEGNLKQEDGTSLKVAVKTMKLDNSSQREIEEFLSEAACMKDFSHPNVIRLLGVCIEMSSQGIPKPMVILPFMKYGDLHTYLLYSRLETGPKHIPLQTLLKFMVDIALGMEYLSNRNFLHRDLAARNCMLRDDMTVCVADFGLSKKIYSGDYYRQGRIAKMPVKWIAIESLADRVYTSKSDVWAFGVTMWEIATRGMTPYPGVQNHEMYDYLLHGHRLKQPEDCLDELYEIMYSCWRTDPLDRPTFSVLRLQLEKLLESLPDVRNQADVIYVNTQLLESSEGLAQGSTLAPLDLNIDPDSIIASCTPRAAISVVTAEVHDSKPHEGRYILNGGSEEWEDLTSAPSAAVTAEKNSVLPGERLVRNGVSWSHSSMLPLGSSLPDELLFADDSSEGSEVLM

Binder	Gas6-mediated pAKT activity, average IC50, human M2c macrophages [nM]
B1	7.74
B2	1.28
B3	0.371

target: T2, Recombinant human MerTK human Fc Chimera protein (R&D systems, Cat #391-MR-100) (human, UniProt Q12866 26-499, limits assumed); assay: competition ELISA, His-ProS on captured MerTK-Fc
T2 construct: Bought; also called recombinant human MerTK protein; MerTK-Fc
T2 sequence: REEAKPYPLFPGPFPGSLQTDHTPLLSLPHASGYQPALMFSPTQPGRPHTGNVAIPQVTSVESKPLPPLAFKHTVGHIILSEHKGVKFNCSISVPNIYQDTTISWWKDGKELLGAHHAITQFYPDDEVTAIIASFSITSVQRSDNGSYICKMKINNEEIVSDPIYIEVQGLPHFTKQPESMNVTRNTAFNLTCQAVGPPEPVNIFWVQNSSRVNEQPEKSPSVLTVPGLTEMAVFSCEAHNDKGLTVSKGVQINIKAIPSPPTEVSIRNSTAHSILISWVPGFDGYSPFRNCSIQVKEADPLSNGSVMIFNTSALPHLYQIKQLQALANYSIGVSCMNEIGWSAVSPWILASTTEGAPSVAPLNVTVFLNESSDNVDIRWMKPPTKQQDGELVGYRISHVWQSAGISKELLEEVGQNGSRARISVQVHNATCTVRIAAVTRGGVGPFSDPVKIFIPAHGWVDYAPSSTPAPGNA
How it was run: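 MerTK-Fc (2 μg/ml) captured on plate-bound anti-human IgG was exposed to anti-MerTK antibodies (66.6 nM-4 pM final) together with His-Gas6 at 3 μg/ml or His-ProS at 20 μg/ml for 1 h. Bound ligand was detected with HRP-anti-His and TMB. IC50 (nM) was derived from OD450 dose-response curves.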

Binder	IC50 [nM]
B1	8.59
B2	3.36
B3	3.27

target: T2, Recombinant human MerTK human Fc …; assay: competition ELISA, His-Gas6 on captured MerTK-Fc
Method: Rabbit anti-human IgG polyclonal antibody (Jackson ImmunoResearch, Cat #309-005-008) was captured to a high-protein binding plate at 2 μg/ml 4° C. overnight. After washing with 0.05% Tween20 in PBS three times, 5% BSA in PBS was added for 1 hour. Recombinant human MerTK human Fc Chimera protein (R&D systems, Cat #391-MR-100) was added at 2 μg/ml for 1 hour and the plates were then washed. Anti-MerTK antibodies were titrated to final concentration range of between 66.6 nM to 4 pM and then 40 μl of serially diluted antibody and 40 μl of His tag-conjugated recombinant Gas6 protein (R&D systems, Cat #885-GSB-050) at 3 μg/ml or His tag-conjugated recombinant ProS protein (R&D systems, Cat #9489-PS-100) at 20 μg/ml. After a further incubation for 1 hour, plates were washed and incubated for 1 hour with HRP-conjugated anti-6×His tag antibody (Abcam, Cat #ab1187). Plates were then washed and an HRP substrate (TMB) was used to develop the plates. After sufficient color change was observed, the reaction was stopped by adding 50 μl 2N H₂SO₄ and the OD was measured using a spectrophotometer (BioTek).
From these experiments, IC50 values [nM] were determined using OD450 values obtained from the dose-response curves analyzed with Prism software. Table 14 and Table 15 show IC50 values determined for anti-MerTK antibody blocking of Gas6 ligand binding and ProS ligand binding to MerTK. […] Dashes indicate lack of significant blocking; “n.a.” indicates data not available.

Binder	IC50 [nM]
B1	6.32
B2	26
B3	7.97
